T1: hNotch 3 (EGF5-EGF12) (human, UniProt Q9UM47 197-505, biotinylated (site not stated))
T1 construct: domain: EGF5-EGF12; Immobilised on the SPR chip through biotin; also called biotinylated Notch3
T1 sequence (looked up): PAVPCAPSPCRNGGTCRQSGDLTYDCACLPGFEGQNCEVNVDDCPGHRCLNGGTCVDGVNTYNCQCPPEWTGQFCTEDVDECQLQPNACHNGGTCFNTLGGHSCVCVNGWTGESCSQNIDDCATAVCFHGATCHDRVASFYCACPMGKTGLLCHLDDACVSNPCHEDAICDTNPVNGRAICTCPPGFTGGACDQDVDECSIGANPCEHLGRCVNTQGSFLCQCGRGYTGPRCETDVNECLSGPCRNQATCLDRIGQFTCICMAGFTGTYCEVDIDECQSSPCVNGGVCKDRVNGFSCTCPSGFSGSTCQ

T2: hNotch 2 (EGF6-EGF13) (human, UniProt Q04721 221-530, biotinylated (site not stated))
T2 construct: domain: EGF6-EGF13; Immobilised on the SPR chip through biotin; also called biotinylated Notch2
T2 sequence (looked up): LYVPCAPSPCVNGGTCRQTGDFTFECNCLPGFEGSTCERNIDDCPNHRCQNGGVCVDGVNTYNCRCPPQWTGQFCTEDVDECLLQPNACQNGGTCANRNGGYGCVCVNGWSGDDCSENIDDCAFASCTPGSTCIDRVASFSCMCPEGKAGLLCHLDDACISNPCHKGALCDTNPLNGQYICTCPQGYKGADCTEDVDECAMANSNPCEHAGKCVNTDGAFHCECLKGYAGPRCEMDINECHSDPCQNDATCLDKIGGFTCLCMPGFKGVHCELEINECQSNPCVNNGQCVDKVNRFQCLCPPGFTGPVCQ


What was measured:
[1] = biological target: Notch1 (as used for the SPR of Example 1); assay: SPR
[2] = biological target: T3, hNotch 1 (EGF6-EGF13) (human, UniProt P46531 218-526, biotinylated (site not stated)); assay: SPR, biotinylated Notch on chip, 1:1 equilibrium binding model
T3 construct: domain: EGF6-EGF13; Immobilised on the SPR chip through biotin; also called biotinylated Notch1
Experimental: (§1) 100. Next, the binding affinity of each individual variant was determined by surface plasmon resonance. Biotinylated Notch1, Notch2, or Notch3 proteins containing the domains indicated above were immobilized on a surface plasmon resonance sensor chip. Increasing concentrations of WT DLL4 or DLL4.v3 were then flowed over the chip and dissociation constants were determined by fitting the data to a 1:1 equilibrium binding model. As shown in FIG. 4 and Table 3, the binding affinity of DLL4.v3 was at least 3 orders of magnitude stronger than wildtype.

[3] = biological target: T1, hNotch 3 (EGF5-EGF12); assay: as above
Experimental: as §1

[4] = biological target: T2, hNotch 2 (EGF6-EGF13); assay: as above
Experimental: as §1

[5] = biological target: T3, hNotch 1 (EGF6-EGF13); assay: SPR
Experimental: as §1

[6] = biological target: T1, hNotch 3 (EGF5-EGF12); assay: SPR
Experimental: as §1

[7] = biological target: T2, hNotch 2 (EGF6-EGF13); assay: SPR
Experimental: as §1

Row | Kd [1] | Kd [2] | Kd [3] | Kd [4] | binding affinity relative to wildtype [5] | binding affinity relative to wildtype [6] | binding affinity relative to wildtype [7] | Molecule
1 | 12.7 µM | – | – | – | – | – | – | wild type rat DLL4 (from UniProt D3ZHH1 27-401) (ligand)
2 | – | 17.9 µM | 22 µM | 35.7 µM | – | – | – | WT hDLL4 (N-EGF3) (ligand, also called WT DLL4; wildtype) SGVFQLQLQEFINERGVLASGRPCEPGCRTFFRVCLKHFQAVVSPGPCTFGTVSTPVLGTNSFAVRDDSSGGGRNPLQLPFNFTWPGTFSLIIEAWHAPGDDLRPEALPPDALISKIAIQGSLAVGQNWLLDEQTSTLTRLRYSYRVICSDNYYGDNCSRLCKKRNDHFGHYVCQPDGNLSCLPGWTGEYCQQPICLSGCHEQNGYCSKPAECLCRPGWQGRLCNECIPHNGCRHGTCSTPWQCTCDEGWGGLFCDQDLNYCTHHSPCKNGATCSNSGQRSYTCTCRPGYTGVDCE
3 | – | 0.02 µM | 0.0273 µM | 0.0314 µM | ~1000 fold | ~1000 fold | ≥ 1000 fold | 3a.5_E12 (N-EGF3) (ligand, also called DLL4.v3; N3a.5_E12) SSVFQLQLQEFINERGVLASGRPCEPGCRTFFRVCLKHFQAVVSPGPCTFGTVSTPVLGTNSFAVRDDSSGGGRNPLQLPLNFTWPGTFSLIIEAWHAPGDDLRPEALPPDALISKFAIQGSLAVGQNWLLDEQTSTLTRLRYSYRVICSDNYYGDNCSRLCKKRNDYFGHYVCQPDGNPSCLPGWTGEYCQQPICLSGCHEQNGYCSKPAECLCRPGWQGRLCNECIPHPGCRHGTCSTPWQCLCDEGWGGLYCDQDLNYCTHHSPCKNGATCRNSGPRSYTCTCRPGYTGVDCE

Source: US20220241335A1 (H LEE MOFFITT CANCER CENTER AND RESEARCH INST5ITUTE, published 2022)
